These results are taken from patent US20200277405A1, “COMPOSITION FOR ANTIBODY-DRUG CONJUGATE DIRECTED AGAINST TUMOR-CELL ASSOCIATED POLYSIALIC ACID” (Cornell University, priority 2019, published 2020).

The assay relates to polysialylated NCAM. Kind of assay: Glycoprotein array specificity profiling. It is filed as binding, chicken. As to the method:
FIGS. 2A-2D depict binding specificity and affinity of the ch735 antibody. […] ELISA signals (Abs370) were obtained with anti-human IgG secondary antibodies. […] Antibodies were assayed at 1 μg/mL and detected with anti-human IgG secondary antibodies. […] Antibodies were assayed at 10 μg/mL and detected with anti-mouse IgG secondary antibodies.
FIGS. 3A-3D depict binding specificity and affinity of mo735 antibody. […] ELISA signals (Abs370) were obtained with anti-mouse IgG secondary antibodies. […] Antibodies were assayed at 1 μg/mL and detected with anti-mouse IgG secondary antibodies. […] Antibodies were assayed at 10 μg/mL and detected with anti-mouse IgG secondary antibodies.
Specificity of mo735 and ch735 was determined using printed glycan arrays 5.3 and 5.4 at the CFG. Both antibodies were analyzed at 10 μg/mL with 5 μg/mL of anti-mouse or anti-human Alexa-Fluor 647 (AF647)-conjugated secondary, respectively. Specificity of mo735 (1 μg/mL) and ch735 (10 μg/mL) was also assessed on a custom glycoprotein array that contained ˜40-50 glycoproteins including chicken brain NCAM and endoN-treated chicken brain NCAM.

B1: ch735: chimeric human IgG1 polySia-specific mAb made by swapping variable regions of mouse mAb 735 (antibody, V domains shown)
VH: QIQLQQSGPELVRPGASVKISCKASGYTFTDYYIHWVKQRPGEGLEWIGWIYPGSGNTKYNEKFKGKATLTVDTSSSTAYMQLSSLTSEDSAVYFCARGGKFAMDYWGQGTSVTVSS
VL: DVVMTQTPLSLPVSLGDQASISCRSSQSLVHSNGNTYLYWYLQKPGQSPKPLIYRVSNRFSGVPDRFSGSGSGTDFTLKISRVEAEDLGVYFCFQGTHVPYTFGGGTRLEIK
Regarding B1, the glycoprotein array binding entry (array of ~50 glycoproteins) is given as “strong preference for polysialylated NCAM”. Besides, for the setting “microarrays, including endoN-treated NCAM spotted on the glycoprotein array”, the “signal towards any other glycomolecules” value was “no significant signal”.
